Experimental data published in patent US20210002623A1, “AMINOPEPTIDASE AND ITS USES” (Centre national de la recherche scientifique, priority 2017, published 2021).

Assays:
[1] = tested on: H-Trp-Phe-Tyr-Ser(PO3H2)-Pro-Arg-pNA; experiment: Hydrolysis of longer peptide substrates followed by reverse phase HPLC; format: biochemical; settings: after 5 minutes, 85° C.
Procedure: The hydrolytic activity of MjTET on synthetic chromogenic and fluorogenic compounds was determined by using different aminoacyl-pNAs and aminoacyl-AMCs through the following procedure. Reactions were initiated by addition of 4 μg/mL of enzyme to a pre-warmed mixture containing 5 mM of the chromogenic or fluorogenic compound in 50 mM CHES, 150 mM KCl and 0.1 mM CoCl2, pH 8.2, in a total volume of 400 μl. Incubation was performed at 75° C. for 5 min. The quantity of liberated pNA was evaluated by measuring the absorbance at λ=405 nm in a JASCO V-630 spectrophotometer, and for AMC by measuring the fluorescence using excitation and emission wavelengths of 360 and 440 nm, respectively in a JASCO FP-8500 spectrofluorometer. Three replicates and two enzyme blanks were assayed for each experimental point. Additional enzymatic studies were performed in order to investigate MjTET capacities to hydrolyze longer substrates (H-Trp-Phe-Tyr-Ser(PO3H2)-Pro-Arg-pNA (SEQ ID NO: 3), H-Met-Trp-Ala-Glu-Asn-Lys (SEQ ID NO:4), H-Tyr-Asp-Thr-Ser-Ile-Val-Gln-Arg (SEQ ID NO:5), H-Asp-Ala-Tyr-Pro-Ser (SEQ ID NO: 6) and H-Glu-Gly-Ile. 2 μg/ml (final concentration) of MjTET were added to a pre-warmed mixture of 0.75 mM peptide, 50 mM CHES, 150 mM KCl, 0.1 mM CoCl2, pH 8.5. To avoid water evaporation, 20 μl of mineral oil were added on the top of the total volume. […]

[2] = Effect of pH on MjTET activity; format: biochemical; settings: pH 6 and 10.5; Leu-pNA, 75° C.
Procedure: The effect of pH on MjTET activity was determined in pH range varying from 6 to 11. The buffers used were: PIPES, pH 6-7.5; CHES, pH 8.2-10 and CAPS, pH 10.5-11. All buffers were used at 50 mM concentration in presence of 150 mM KCl, 0.1 mM CoCl2, 4 μg/mL of MjTET and 5 mM Leu-pNA as substrate. The given pH values are at 75° C. Incubation was done at 75° C. for 5 min and the quantity of produced pNA was evaluated by measuring the absorbance at 405 nm.

[3] = Effect of temperature on MjTET activity; format: biochemical; settings: Leu-pNA
Procedure: Different temperatures ranging from 20 to 90° C. were tested on MjTET activity. Incubation was done in 50 mM CHES, 150 mM KCl, 0.1 mM CoCl2, pH 8.5 in presence of 4 μg/mL of protein and 5 mM Leu-pNA for 5 min. Absorbance of released pNA was measured at 405 nm.

[4] = Hydrolytic activity on synthetic chromogenic and fluorogenic monoacyl compounds; format: biochemical; settings: for cleavage of tryptophan from substrate Nt end: FIG. 4; for amidolytic activity against aromatic amino acids: phenylalanine and tyrosine, MjTET compared with PhTET2 (FIG. 4)
Procedure: The hydrolytic activity of MjTET on synthetic chromogenic and fluorogenic compounds was determined by using different aminoacyl-pNAs and aminoacyl-AMCs through the following procedure. Reactions were initiated by addition of 4 μg/mL of enzyme to a pre-warmed mixture containing 5 mM of the chromogenic or fluorogenic compound in 50 mM CHES, 150 mM KCl and 0.1 mM CoCl2, pH 8.2, in a total volume of 400 μl. Incubation was performed at 75° C. for 5 min. The quantity of liberated pNA was evaluated by measuring the absorbance at λ=405 nm in a JASCO V-630 spectrophotometer, and for AMC by measuring the fluorescence using excitation and emission wavelengths of 360 and 440 nm, respectively in a JASCO FP-8500 spectrofluorometer. Three replicates and two enzyme blanks were assayed for each experimental point. Additional enzymatic studies were performed in order to investigate MjTET capacities to hydrolyze longer substrates (H-Trp-Phe-Tyr-Ser(PO3H2)-Pro-Arg-pNA (SEQ ID NO: 3), H-Met-Trp-Ala-Glu-Asn-Lys (SEQ ID NO:4), H-Tyr-Asp-Thr-Ser-Ile-Val-Gln-Arg (SEQ ID NO:5), H-Asp-Ala-Tyr-Pro-Ser (SEQ ID NO: 6) and H-Glu-Gly-Ile. 2 μg/ml (final concentration) of MjTET were added to a pre-warmed mixture of 0.75 mM peptide, 50 mM CHES, 150 mM KCl, 0.1 mM CoCl2, pH 8.5. To avoid water evaporation, 20 μl of mineral oil were added on the top of the total volume. The reaction incubation was done at 85° C. during 6 min. Aliquot of 80 μl was then removed and added to 220 μl of 2% acetonitrile (ACN), 0.1% trifluoroacetic acid (TFA). Proteins were removed by centrifugation at 13,000 rpm during 15 min. 100 μl of the supernatant were retrieved and injected on Nova-Pak C18 column, (4 μm, 3.9×300 mm, (Waters)) in a HPLC purifier system (PerkinElmer), equilibrated with 2% ACN, 0.1% TFA. […] Chromatographic runs were carried out at room temperature.

[5] = tested on: peptide YFLMNENRYTSWNSE (SEQ ID NO: 2); experiment: Time necessary to hydrolyse 50% of a 15 amino acid peptide at different temperatures; format: biochemical
Procedure: In order to evaluate the effect of the temperature on the activity of MjTET, the inventors evaluated the relative amount of intact peptides further to an incubation with the TET protein at different temperatures.
The inventors have measured the relative amount of intact peptide further to an incubation with MjTET.
MjTET activity was measured on the following peptide: YFLMNENRYTSWNSE (SEQ ID NO: 2). The inventors evaluated the time necessary to hydrolyse 50% of the peptide at different tempertaures

[6] = Effect of temperature on MjTET stability (remaining aminopeptidase activity after incubation at 85° C.); format: physicochemical; settings: incubated at 85° C.; remaining activity on Leu-pNA
Procedure: The effect of temperature on MjTET stability was assayed by incubating the enzyme (160 μg/ml) at 85° C. Aliquot of 10 μl was taken at different time intervals, and the remaining aminopeptidase activity was assayed against 5 mM Leu-pNA in 390 μl of 50 mM CHES, 150 mM KCl, 0.1 mM CoCl2, pH 8.5 incubated at 85° C. for 5 min. Enzymatic stability of MjTET was evaluated by measuring the quantity of produced pNA at 405 nm.

Molecule | hydrolysis of the original peptide substrate [1] | percentage of LAP activity maintained [2] | temperature of maximal LAP activity ([3]; pH 8.5, 0.1 mM CoCl2, 20 to 90° C. tested) | LAP activity in mesophilic conditions ([3]; under 50° C.) | cleavage of tryptophan from substrate Nt end [4] | amidolytic activity ([4]; against Leu-pNA, 75° C., pH 8.2) | amidolytic activity ([4]; against hydrophobic residues such as phenylalanine, methionine and tyrosine) | amidolytic activity ([4]; aspartate, glutamate, cysteine and proline monoacyl substrates) | amidolytic activity ([4]; blocked residues and D-stereo configuration: Ac-Leu-pNA and D-Leu-pNA) | amidolytic activity against aromatic amino acids [4] | amidolytic activity ([4]; polar and positively charged residues) | Time necessary to hydrolyse 50% of the peptide ([5]; 20 ° C.) | Time necessary to hydrolyse 50% of the peptide ([5]; 30 ° C.) | Time necessary to hydrolyse 50% of the peptide ([5]; 40 ° C.) | Time necessary to hydrolyse 50% of the peptide ([5]; 50 ° C.) | Time necessary to hydrolyse 50% of the peptide ([5]; 60 ° C.) | Time necessary to hydrolyse 50% of the peptide ([5]; 70 ° C.) | Time necessary to hydrolyse 50% of the peptide ([5]; 80 ° C.) | half-life [6] | hydrolytic activity toward N-terminal phenylalanine residues [4]
MjTET: TET aminopeptidase (M42 family, dodecameric) from Methanocaldococcus jannaschii comprising SEQ ID NO: 1 (protein, listed as Methanococcus jannaschii) MSVVEYLKKLSKLHGISGREDSVREFMKKELEKYCDSVEIDNFGNLIAKRGNKGKKIMIAAHMDEIGLMVKYIDDNGFLKFTKIGGIYDPTILNQKVVVHGSKGDLIGVLGSKPPHRMKEEEKTKIIKYEDMFIDIGAESREEAIEMGVNIGTWVSFLSEVYDLGKNRLTGKAFDDRVGCAVLLEVMKRLSEEDIDCQVYAVGTVQEEVGLKGARVSAFKINPDVAIALDVTIAGDHPGIKKEDAPVDLGKGPVVGIVDASGRGLIAHPKVLDMIKAVSEKYKIDVQWEVGEGGTTDATAIHLTREGIPTGVISVPARYIHTPVEVIDKRDLEKTVELVYNCIKEVNNFF | almost hydrolyzed | more than 50% | 85 °C | No activity was detected | unable to cleave | optimal amidolytic activity | significant amidolytic activities | no activity was detected | no activity was detected | more efficient | Reduced activities | 75 h | 55 h | 3,9 h | 1.3 h | 1 h | 0.6 h | 0.25 h | eight | 
PhTET2: leucyl aminopeptidase TET complex of Pyrococcus horikoshii with broad activity against neutral amino acids (protein) MEVRNMVDYELLKKVVEAPGVSGYEFLGIRDVVIEEIKDYVDEVKVDKLGNVIAHKKGEGPKVMIAAHMDQIGLMVTHIEKNGFLRVAPIGGVDPKTLIAQRFKVWIDKGKFIYGVGASVPPHIQKPEDRKKAPDWDQIFIDIGAESKEEAEDMGVKIGTVITWDGRLERLGKHRFVSIAFDDRIAVYTILEVAKQLKDAKADVYFVATVQEEVGLRGARTSAFGIEPDYGFAIDVTIAADIPGTPEHKQVTHLGKGTAIKIMDRSVICHPTIVRWLEELAKKHEIPYQLEILLGGGTDAGAIHLTKAGVPTGALSVPARYIHSNTEVVDERDVDATVELMTKALENIHELKI |  |  |  |  | unable to cleave |  |  |  |  | weak activity |  |  |  | 0.5 h |  |  |  |  |  | devoid of hydrolytic activity
